Reference: patent US20240343771A1 (Chugai, published 2024)

B1: Anti-IL-12 antibody Ab1 variant Y91A VH/- (antibody, name in Kabat numbering, V domains shown)
VH: QVQLVQSGAEVKKPGSSVKVSCKASGGTFSDYYLHWVRQAPGQGLEWMGWIDPENGDTEYAPKFQGRVTITADESTSTAYMELSSLRSEDTAVYACARNKELRYFDVWGQGTLVTVSS
VL: DIVMTQSPLSLPVTPGEPASISCRASQSISINLHWYQQKPGQAPRLLIYFASQSISGVPSRFSGSGSGTDFTLTISSLQPEDFATYYCQQSNSFPLTFGQGTKVEIKR
notes: Ab1 with VH/VL interface substitutions; Kabat numbering
B2: Anti-IL-12 antibody Ab1 variant Y91M VH/A43Q, P44A, Y49A VL (antibody, name in Kabat numbering, V domains shown)
VH: QVQLVQSGAEVKKPGSSVKVSCKASGGTFSDYYLHWVRQAPGQGLEWMGWIDPENGDTEYAPKFQGRVTITADESTSTAYMELSSLRSEDTAVYMCARNKELRYFDVWGQGTLVTVSS
VL: DIVMTQSPLSLPVTPGEPASISCRASQSISINLHWYQQKPGQQARLLIAFASQSISGVPSRFSGSGSGTDFTLTISSLQPEDFATYYCQQSNSFPLTFGQGTKVEIKR
notes: as for B1
B3: Anti-IL-12 antibody Ab1 variant Y91A VH/A43Q, Y49A VL (antibody, name in Kabat numbering, V domains shown)
VH: QVQLVQSGAEVKKPGSSVKVSCKASGGTFSDYYLHWVRQAPGQGLEWMGWIDPENGDTEYAPKFQGRVTITADESTSTAYMELSSLRSEDTAVYACARNKELRYFDVWGQGTLVTVSS
VL: DIVMTQSPLSLPVTPGEPASISCRASQSISINLHWYQQKPGQQPRLLIAFASQSISGVPSRFSGSGSGTDFTLTISSLQPEDFATYYCQQSNSFPLTFGQGTKVEIKR
notes: as for B1
B4: Anti-IL-12 antibody Ab1 variant Y91M VH/Y49A, Y87L VL (antibody, name in Kabat numbering, V domains shown)
VH: QVQLVQSGAEVKKPGSSVKVSCKASGGTFSDYYLHWVRQAPGQGLEWMGWIDPENGDTEYAPKFQGRVTITADESTSTAYMELSSLRSEDTAVYMCARNKELRYFDVWGQGTLVTVSS
VL: DIVMTQSPLSLPVTPGEPASISCRASQSISINLHWYQQKPGQAPRLLIAFASQSISGVPSRFSGSGSGTDFTLTISSLQPEDFATYLCQQSNSFPLTFGQGTKVEIKR
notes: as for B1
B5: Anti-IL-12 antibody Ab1 variant Y91M VH/A43Q, L46Q, Y49A VL (antibody, name in Kabat numbering, V domains shown)
VH: QVQLVQSGAEVKKPGSSVKVSCKASGGTFSDYYLHWVRQAPGQGLEWMGWIDPENGDTEYAPKFQGRVTITADESTSTAYMELSSLRSEDTAVYMCARNKELRYFDVWGQGTLVTVSS
VL: DIVMTQSPLSLPVTPGEPASISCRASQSISINLHWYQQKPGQQPRQLIAFASQSISGVPSRFSGSGSGTDFTLTISSLQPEDFATYYCQQSNSFPLTFGQGTKVEIKR
notes: as for B1
B6: Anti-IL-12 antibody Ab1 variant Y91M VH/P44A, Y49A VL (antibody, name in Kabat numbering, V domains shown)
VH: QVQLVQSGAEVKKPGSSVKVSCKASGGTFSDYYLHWVRQAPGQGLEWMGWIDPENGDTEYAPKFQGRVTITADESTSTAYMELSSLRSEDTAVYMCARNKELRYFDVWGQGTLVTVSS
VL: DIVMTQSPLSLPVTPGEPASISCRASQSISINLHWYQQKPGQAARLLIAFASQSISGVPSRFSGSGSGTDFTLTISSLQPEDFATYYCQQSNSFPLTFGQGTKVEIKR
notes: as for B1
B7: Anti-IL-12 antibody Ab1 variant Y91M VH/Y49A, F98L VL (antibody, name in Kabat numbering, V domains shown)
VH: QVQLVQSGAEVKKPGSSVKVSCKASGGTFSDYYLHWVRQAPGQGLEWMGWIDPENGDTEYAPKFQGRVTITADESTSTAYMELSSLRSEDTAVYMCARNKELRYFDVWGQGTLVTVSS
VL: DIVMTQSPLSLPVTPGEPASISCRASQSISINLHWYQQKPGQAPRLLIAFASQSISGVPSRFSGSGSGTDFTLTISSLQPEDFATYYCQQSNSFPLTLGQGTKVEIKR
notes: as for B1
B8: Anti-IL-12 antibody Ab1 variant Y91L VH/- (antibody, name in Kabat numbering, V domains shown)
VH: QVQLVQSGAEVKKPGSSVKVSCKASGGTFSDYYLHWVRQAPGQGLEWMGWIDPENGDTEYAPKFQGRVTITADESTSTAYMELSSLRSEDTAVYLCARNKELRYFDVWGQGTLVTVSS
VL: DIVMTQSPLSLPVTPGEPASISCRASQSISINLHWYQQKPGQAPRLLIYFASQSISGVPSRFSGSGSGTDFTLTISSLQPEDFATYYCQQSNSFPLTFGQGTKVEIKR
notes: as for B1
B9: Anti-IL-12 antibody Ab1 variant Y91M VH/L46Q, Y49A, Y87M VL (antibody, name in Kabat numbering, V domains shown)
VH: QVQLVQSGAEVKKPGSSVKVSCKASGGTFSDYYLHWVRQAPGQGLEWMGWIDPENGDTEYAPKFQGRVTITADESTSTAYMELSSLRSEDTAVYMCARNKELRYFDVWGQGTLVTVSS
VL: DIVMTQSPLSLPVTPGEPASISCRASQSISINLHWYQQKPGQAPRQLIAFASQSISGVPSRFSGSGSGTDFTLTISSLQPEDFATYMCQQSNSFPLTFGQGTKVEIKR
notes: as for B1
B10: Anti-IL-12 antibody Ab1 variant Y91M VH/L46Q, Y49A VL (antibody, name in Kabat numbering, V domains shown)
VH: QVQLVQSGAEVKKPGSSVKVSCKASGGTFSDYYLHWVRQAPGQGLEWMGWIDPENGDTEYAPKFQGRVTITADESTSTAYMELSSLRSEDTAVYMCARNKELRYFDVWGQGTLVTVSS
VL: DIVMTQSPLSLPVTPGEPASISCRASQSISINLHWYQQKPGQAPRQLIAFASQSISGVPSRFSGSGSGTDFTLTISSLQPEDFATYYCQQSNSFPLTFGQGTKVEIKR
notes: as for B1
B11: Anti-IL-12 antibody Ab1 variant Y91A VH/Y49A, Y87L VL (antibody, name in Kabat numbering, V domains shown)
VH: QVQLVQSGAEVKKPGSSVKVSCKASGGTFSDYYLHWVRQAPGQGLEWMGWIDPENGDTEYAPKFQGRVTITADESTSTAYMELSSLRSEDTAVYACARNKELRYFDVWGQGTLVTVSS
VL: DIVMTQSPLSLPVTPGEPASISCRASQSISINLHWYQQKPGQAPRLLIAFASQSISGVPSRFSGSGSGTDFTLTISSLQPEDFATYLCQQSNSFPLTFGQGTKVEIKR
notes: as for B1
B12: Anti-IL-12 antibody Ab1 variant Y91M VH/A43Q, Y49A VL (antibody, name in Kabat numbering, V domains shown)
VH: QVQLVQSGAEVKKPGSSVKVSCKASGGTFSDYYLHWVRQAPGQGLEWMGWIDPENGDTEYAPKFQGRVTITADESTSTAYMELSSLRSEDTAVYMCARNKELRYFDVWGQGTLVTVSS
VL: DIVMTQSPLSLPVTPGEPASISCRASQSISINLHWYQQKPGQQPRLLIAFASQSISGVPSRFSGSGSGTDFTLTISSLQPEDFATYYCQQSNSFPLTFGQGTKVEIKR
notes: as for B1
B13: Anti-IL-12 antibody Ab1 variant Y91A VH/L46Q, Y49A VL (antibody, name in Kabat numbering, V domains shown)
VH: QVQLVQSGAEVKKPGSSVKVSCKASGGTFSDYYLHWVRQAPGQGLEWMGWIDPENGDTEYAPKFQGRVTITADESTSTAYMELSSLRSEDTAVYACARNKELRYFDVWGQGTLVTVSS
VL: DIVMTQSPLSLPVTPGEPASISCRASQSISINLHWYQQKPGQAPRQLIAFASQSISGVPSRFSGSGSGTDFTLTISSLQPEDFATYYCQQSNSFPLTFGQGTKVEIKR
notes: as for B1
B14: Anti-IL-12 antibody Ab1 variant Y91M VH/- (antibody, name in Kabat numbering, V domains shown)
VH: QVQLVQSGAEVKKPGSSVKVSCKASGGTFSDYYLHWVRQAPGQGLEWMGWIDPENGDTEYAPKFQGRVTITADESTSTAYMELSSLRSEDTAVYMCARNKELRYFDVWGQGTLVTVSS
VL: DIVMTQSPLSLPVTPGEPASISCRASQSISINLHWYQQKPGQAPRLLIYFASQSISGVPSRFSGSGSGTDFTLTISSLQPEDFATYYCQQSNSFPLTFGQGTKVEIKR
notes: as for B1
B15: Anti-IL-12 antibody Ab1 variant Y91A VH/P44A, Y49A VL (antibody, name in Kabat numbering, V domains shown)
VH: QVQLVQSGAEVKKPGSSVKVSCKASGGTFSDYYLHWVRQAPGQGLEWMGWIDPENGDTEYAPKFQGRVTITADESTSTAYMELSSLRSEDTAVYACARNKELRYFDVWGQGTLVTVSS
VL: DIVMTQSPLSLPVTPGEPASISCRASQSISINLHWYQQKPGQAARLLIAFASQSISGVPSRFSGSGSGTDFTLTISSLQPEDFATYYCQQSNSFPLTFGQGTKVEIKR
notes: as for B1

Each binder was assayed against T1, human IL-12 (human, UniProt P29460 23-328; P29459 23-219) (assay: SPR (Biacore T200), 37 C, pH 7.4; captured antibody, IL-12 analyte).
T1 construct: also called Interleukin-12
T1 sequence 1: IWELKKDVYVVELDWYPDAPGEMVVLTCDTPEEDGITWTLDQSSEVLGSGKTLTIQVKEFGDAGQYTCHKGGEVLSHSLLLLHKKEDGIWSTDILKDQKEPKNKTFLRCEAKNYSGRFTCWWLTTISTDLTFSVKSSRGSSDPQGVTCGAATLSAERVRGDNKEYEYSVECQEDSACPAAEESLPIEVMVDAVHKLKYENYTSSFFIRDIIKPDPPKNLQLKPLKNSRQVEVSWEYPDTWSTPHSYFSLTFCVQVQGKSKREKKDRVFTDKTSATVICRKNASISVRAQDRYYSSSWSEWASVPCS
T1 sequence 2: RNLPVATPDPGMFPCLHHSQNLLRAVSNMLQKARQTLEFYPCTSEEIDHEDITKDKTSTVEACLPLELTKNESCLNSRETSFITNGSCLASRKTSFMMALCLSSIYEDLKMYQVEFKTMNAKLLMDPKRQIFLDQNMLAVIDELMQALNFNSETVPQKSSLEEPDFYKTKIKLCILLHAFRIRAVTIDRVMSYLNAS
Procedure, shortened: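 Antibodies captured (~50 RU) on anti-human Fc surface, CM4 chip; 5 nM human IL-12 injected as analyte, then dissociation. Run at 37 °C in 20 mM ACES pH 7.4, 150 mM NaCl, 0.05% Tween 20; 3M MgCl₂ regeneration between cycles.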

Q: With B1 as the binder, how does the Kd read?
A: 0.948 nM

Q: B2 was tested. Which Kd did it give?
A: 1.69 nM

Q: With B3 as the binder, how does the Kd read?
A: 1.91 nM

Q: How did the Kd turn out when B4 was run?
A: 3.1 nM

Q: B5 was tested. Which Kd did it give?
A: 4.41 nM

Q: B6 was tested. Which Kd did it give?
A: 1.83 nM

Q: With B7 as the binder, how does the Kd read?
A: 1.07 nM

Q: How did the Kd turn out when B8 was run?
A: 1.21 nM

Q: B9 was tested. Which Kd did it give?
A: 3.83 nM

Q: With B10 as the binder, how does the Kd read?
A: 3.83 nM

Q: How did the Kd turn out when B11 was run?
A: 2.82 nM

Q: B12 was tested. Which Kd did it give?
A: 1.87 nM

Q: For B13, which Kd is on record?
A: 3.97 nM

Q: B14 was tested. Which Kd did it give?
A: 0.827 nM

Q: For B15, which Kd is on record?
A: 2.32 nM
